Reference: PMC8885668, “A high-performance electrochemical aptasensor based on graphene-decorated rhodium nanoparticles to detect HER2-ECD oncomarker in liquid biopsy”

Target: HER2-ECD (recombinant human HER2/ErbB2/CD340) (human, UniProt P04626 23-652)
Assay: electrochemical aptasensor (DPV); Rh-NPs/rGONs graphite electrode; linear 10-500 ng/mL; LOD 0.665 ng/mL (0.667 in abstract), not a Kd; DPV in 0.1 M PBS pH 7.4, 5.0 mM K4[Fe(CN)6]/K3[Fe(CN)6] (1:1), 0.1 M KCl; 50 nM aptamer immobilized; 40 min protein incubation; BSA-blocked; binding temperature not stated
Details: protein: commercial; predicted double stem-loop; text also claims G-quadruplex

B1: anti-HER2 aptamer (ssDNA)
DNA: GGGCCGTCGAACACGAGCATGGTGCGTGGACCTAGGATGACCTGAGTACTGTCC
modifications: 5' NH2-(CH2)6, amide-coupled to MPA on electrode
- binding result: binds
